One block for each binder: values may come before it.
Tests used:
4H2588-bN = target: T1, 4H2588-bN; test: two-hybrid library CCNG1;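 note: natural log of median RNA to DNA barcode read ratio; higher means stronger binding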
T1 chain: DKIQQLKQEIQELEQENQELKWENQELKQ

4H492-bN = target: T2, 4H492-bN; test: two-hybrid library CCNG1;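 note: natural log of median RNA to DNA barcode read ratio; higher means stronger binding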
T2 chain: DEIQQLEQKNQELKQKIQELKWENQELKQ

4H2717-bN = target: T3, 4H2717-bN; test: two-hybrid library CCNG1;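 note: natural log of median RNA to DNA barcode read ratio; higher means stronger binding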
T3 chain: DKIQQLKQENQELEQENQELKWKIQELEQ

4H3926-bH = target: T4, 4H3926-bH; test: two-hybrid library CCNG1;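 note: natural log of median RNA to DNA barcode read ratio; higher means stronger binding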
T4 chain: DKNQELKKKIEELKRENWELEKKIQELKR

4H2839-bN = target: T5, 4H2839-bN; test: two-hybrid library CCNG1;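 note: natural log of median RNA to DNA barcode read ratio; higher means stronger binding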
T5 chain: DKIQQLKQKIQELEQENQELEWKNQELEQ

4H3057-bN = target: T6, 4H3057-bN; test: two-hybrid library CCNG1;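 note: natural log of median RNA to DNA barcode read ratio; higher means stronger binding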
T6 chain: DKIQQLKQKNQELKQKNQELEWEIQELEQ

4H741-bN = target: T7, 4H741-bN; test: two-hybrid library CCNG1
T7 chain: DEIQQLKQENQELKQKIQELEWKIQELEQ

4H2438-bN = target: T8, 4H2438-bN; test: two-hybrid library CCNG1
T8 chain: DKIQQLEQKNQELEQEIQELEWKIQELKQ

4H477-bN = target: T9, 4H477-bN; test: two-hybrid library CCNG1
T9 chain: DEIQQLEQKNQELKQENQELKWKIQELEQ

4H3277-bN = target: T10, 4H3277-bN; test: two-hybrid library CCNG1
T10 chain: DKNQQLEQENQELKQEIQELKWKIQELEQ

4H40-bN = target: T11, 4H40-bN; test: two-hybrid library CCNG1
T11 chain: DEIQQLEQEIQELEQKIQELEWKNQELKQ

4H348-bN = target: T12, 4H348-bN; test: two-hybrid library CCNG1
T12 chain: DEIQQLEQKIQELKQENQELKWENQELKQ

4H2473-bN = target: T13, 4H2473-bN; test: two-hybrid library CCNG1
T13 chain: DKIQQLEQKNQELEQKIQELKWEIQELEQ

4H2503-bN = target: T14, 4H2503-bN; test: two-hybrid library CCNG1
T14 chain: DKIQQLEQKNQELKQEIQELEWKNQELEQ

4H2692-bN = target: T15, 4H2692-bN; test: two-hybrid library CCNG1
T15 chain: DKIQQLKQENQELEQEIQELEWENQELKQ

4H319-bN = target: T16, 4H319-bN; test: two-hybrid library CCNG1
T16 chain: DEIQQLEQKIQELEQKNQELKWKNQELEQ

4H2915-bN = target: T17, 4H2915-bN; test: two-hybrid library CCNG1
T17 chain: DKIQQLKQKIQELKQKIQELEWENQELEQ

4H2898-AA = target: T18, 4H2898-AA; test: two-hybrid library CCmax; details: mean of both orientations
T18 chain: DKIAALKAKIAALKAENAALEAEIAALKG

4H58-AA = target: T19, 4H58-AA; test: two-hybrid library CCmax; details: mean of both orientations
T19 chain: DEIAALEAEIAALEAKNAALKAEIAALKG

4H895-AA = target: T20, 4H895-AA; test: two-hybrid library CCmax; details: mean of both orientations
T20 chain: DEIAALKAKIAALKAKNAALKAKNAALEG

4H_BCR = target: T21, 4H_BCR; test: two-hybrid library CCmax; details: mean of both orientations
T21 chain: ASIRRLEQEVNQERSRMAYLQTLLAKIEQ

4H486-AA = target: T22, 4H486-AA; test: two-hybrid library CCmax; details: mean of both orientations
T22 chain: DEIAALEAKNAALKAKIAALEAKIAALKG

4H535-AA = target: T23, 4H535-AA; test: two-hybrid library CCmax; details: mean of both orientations
T23 chain: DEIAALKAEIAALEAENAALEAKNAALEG

4H2600-AA = target: T24, 4H2600-AA; test: two-hybrid library CCmax
T24 chain: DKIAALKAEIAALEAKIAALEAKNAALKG

4H355-AA = target: T25, 4H355-AA; test: two-hybrid library CCmax; details: mean of both orientations
T25 chain: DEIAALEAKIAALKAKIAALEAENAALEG

4H_APH = target: T26, 4H_APH; test: two-hybrid library CCmax
T26 chain: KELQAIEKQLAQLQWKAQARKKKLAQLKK

4H2721-AA = target: T27, 4H2721-AA; test: two-hybrid library CCmax; details: mean of both orientations
T27 chain: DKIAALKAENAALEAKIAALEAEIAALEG

4H3782-AA = target: T28, 4H3782-AA; test: two-hybrid library CCmax; details: mean of both orientations
T28 chain: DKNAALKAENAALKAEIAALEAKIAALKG

GCN2_T = test: two-hybrid library CCmax
4H_GCN4 = test: two-hybrid library CCmax
4H3651-AA = target: T29, 4H3651-AA; test: two-hybrid library CCmax; details: mean of both orientations
T29 chain: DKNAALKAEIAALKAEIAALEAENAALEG

4H3705-AA = target: T30, 4H3705-AA; test: two-hybrid library CCmax; details: mean of both orientations
T30 chain: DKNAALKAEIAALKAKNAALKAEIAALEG

4H3365-AA = target: T31, 4H3365-AA; test: two-hybrid library CCmax; details: mean of both orientations
T31 chain: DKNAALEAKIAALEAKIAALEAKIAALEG

4H2750-AA = target: T32, 4H2750-AA; test: two-hybrid library CCmax; details: mean of both orientations
T32 chain: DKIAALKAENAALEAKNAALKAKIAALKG

4H3020-AA = target: T33, 4H3020-AA; test: two-hybrid library CCmax; details: mean of both orientations
T33 chain: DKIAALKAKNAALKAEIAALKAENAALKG

4H465-AA = target: T34, 4H465-AA; test: two-hybrid library CCmax; details: mean of both orientations
T34 chain: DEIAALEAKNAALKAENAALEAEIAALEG

4H_GCN4, sequence (chain, as listed by the source): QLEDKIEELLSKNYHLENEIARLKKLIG

interaction score (4H2588-bN): -0.403
interaction score (4H492-bN): 0.204
interaction score (4H2717-bN): -0.613
interaction score (4H3926-bH): -4.14
interaction score (4H2839-bN): -1.05
interaction score (4H3057-bN): 2.19
interaction score (4H741-bN): -0.278
interaction score (4H2438-bN): 1.09
interaction score (4H477-bN): 0.509
interaction score (4H3277-bN): -0.843
interaction score (4H40-bN): -0.693
interaction score (4H348-bN): -1.05
interaction score (4H2473-bN): 1.05
interaction score (4H2503-bN): 0.452
interaction score (4H2692-bN): -1.41
interaction score (4H319-bN): -0.63
interaction score (4H2915-bN): 2
Binder: DKIQQLEQKNQELEQEIQELEWKIQELKQ [4H2438-bN]

interaction score (4H2898-AA): 0.0245
interaction score (4H58-AA): 0.179
interaction score (4H895-AA): -0.393
interaction score (4H_BCR): -1.4
interaction score (4H486-AA): 0.497
interaction score (4H535-AA): -0.657
interaction score (4H2600-AA): 1.58
interaction score (4H355-AA): 2.12
interaction score (4H_APH): -1.47
interaction score (4H2721-AA): -0.793
interaction score (4H3782-AA): -1.12
interaction score (GCN2_T): -1.38
interaction score (4H_GCN4): -1.63
interaction score (4H3651-AA): 0.646
interaction score (4H3705-AA): 0.21
interaction score (4H3365-AA): -0.236
interaction score (4H2750-AA): -1.65
interaction score (4H3020-AA): -0.911
interaction score (4H465-AA): -1.72
Binder: DKIAALKAEIAALEAKIAALEAKNAALKG [4H2600-AA]
